Data taken from patent US9062353B2, “Electrically conductive polymer electrodes with incorporated viruses” (THE REGENTS OF THE UNIVERSITY OF CALIFORNIA, priority 2010, dated 2015).

Tests used:
Conditions in all cases: phage-displayed peptide
PSMA dimer = target: T1, PSMA dimer (Homo sapiens, UniProt Q04609); assay: phage-based ELISA, binding to PSMA dimer
T1 construct: purchased Molecular Express, Inc
Experimental: (§1) A Nunc Maxisorp plate was coated with 10 μg/mL PSMA monomer or dimer protein for 1 h. The coating solution was removed, and the plate was blocked for 1 h with 0.2% BSA in PBS and washed 5 times with PT (300 μL/well). The wells were then incubated with phage displaying PSMA-binding peptides (100 μL/well) at the indicated concentrations for 1 h. After washing five times with PT, the plate was incubated with HRP-conjugated anti-M13 phage antibody (100 μL, 1:5000) in 0.1% PBT buffer for 30 min, and washed three times with PT, and twice with PBS. The plate was then developed using an o-phenylenediamine dihydrochloride/H2O2 solution (100 μL, 1 mg mL-1/0.02%) in citric acid buffer (50 mM citric acid, 50 mM Na2HPO4, pH 5.0), and the HRP activity was measured as absorbance at 450 nm.
The previously reported PSMA binding peptides, PSMA-1 (amino acid sequence, […] (SEQ ID NO:3)) and PSMA-2 (amino acid sequence, […] (SEQ ID NO:4)), were compared for affinity to the homodimeric and monomeric isoforms of PSMA. Details regarding PSMA-1 and PSMA-2 may be found in Yang, L. M. et al., Anal. Chem. 2006, 78, 3265-3270, which is incorporated by reference herein. Though diagnostically irrelevant, the monomeric isoform of PSMA provides a control for the binding specificity. […] Chosen for its specificity to the PSMA dimer, the PSMA-2 sequence provided the template for an affinity maturation library targeting the PSMA dimer.

PSMA monomer = target: T2, PSMA monomer (Homo sapiens, UniProt Q04609); assay: phage-based ELISA, binding to PSMA monomer
T2 construct: purchased Molecular Express, Inc
Experimental: as §1
The previously reported PSMA binding peptides, PSMA-1 (amino acid sequence, […] (SEQ ID NO:3)) and PSMA-2 (amino acid sequence, […] (SEQ ID NO:4)), were compared for affinity to the homodimeric and monomeric isoforms of PSMA. Details regarding PSMA-1 and PSMA-2 may be found in Yang, L. M. et al., Anal. Chem. 2006, 78, 3265-3270, which is incorporated by reference herein. Though diagnostically irrelevant, the monomeric isoform of PSMA provides a control for the binding specificity. […]

TfR = TfR (Homo sapiens, UniProt P02786); assay: binding specificity, transferrin receptor
casein = assay: binding specificity, casein

T1 sequence (Q04609 whole entry): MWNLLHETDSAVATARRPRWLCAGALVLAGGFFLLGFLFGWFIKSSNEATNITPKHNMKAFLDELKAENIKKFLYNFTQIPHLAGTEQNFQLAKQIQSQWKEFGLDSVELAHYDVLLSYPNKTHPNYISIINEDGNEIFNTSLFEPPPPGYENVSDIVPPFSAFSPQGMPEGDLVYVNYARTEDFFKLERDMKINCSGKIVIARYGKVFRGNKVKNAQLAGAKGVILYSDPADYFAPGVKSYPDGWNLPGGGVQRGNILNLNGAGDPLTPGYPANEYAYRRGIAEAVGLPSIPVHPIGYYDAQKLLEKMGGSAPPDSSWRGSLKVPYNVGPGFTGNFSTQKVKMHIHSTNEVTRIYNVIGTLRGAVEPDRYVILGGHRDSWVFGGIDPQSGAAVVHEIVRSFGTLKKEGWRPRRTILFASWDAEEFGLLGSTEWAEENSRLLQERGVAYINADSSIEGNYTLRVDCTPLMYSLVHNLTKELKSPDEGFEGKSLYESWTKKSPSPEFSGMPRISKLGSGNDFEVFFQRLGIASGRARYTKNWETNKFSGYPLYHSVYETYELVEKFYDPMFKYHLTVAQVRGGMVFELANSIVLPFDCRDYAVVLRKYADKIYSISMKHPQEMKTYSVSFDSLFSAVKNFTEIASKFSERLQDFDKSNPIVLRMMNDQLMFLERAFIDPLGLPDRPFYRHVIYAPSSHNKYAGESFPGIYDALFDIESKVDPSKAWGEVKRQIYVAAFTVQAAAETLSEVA
T2 sequence (Q04609 whole entry): as above
Sequence of TfR (P02786 whole entry, species assumed): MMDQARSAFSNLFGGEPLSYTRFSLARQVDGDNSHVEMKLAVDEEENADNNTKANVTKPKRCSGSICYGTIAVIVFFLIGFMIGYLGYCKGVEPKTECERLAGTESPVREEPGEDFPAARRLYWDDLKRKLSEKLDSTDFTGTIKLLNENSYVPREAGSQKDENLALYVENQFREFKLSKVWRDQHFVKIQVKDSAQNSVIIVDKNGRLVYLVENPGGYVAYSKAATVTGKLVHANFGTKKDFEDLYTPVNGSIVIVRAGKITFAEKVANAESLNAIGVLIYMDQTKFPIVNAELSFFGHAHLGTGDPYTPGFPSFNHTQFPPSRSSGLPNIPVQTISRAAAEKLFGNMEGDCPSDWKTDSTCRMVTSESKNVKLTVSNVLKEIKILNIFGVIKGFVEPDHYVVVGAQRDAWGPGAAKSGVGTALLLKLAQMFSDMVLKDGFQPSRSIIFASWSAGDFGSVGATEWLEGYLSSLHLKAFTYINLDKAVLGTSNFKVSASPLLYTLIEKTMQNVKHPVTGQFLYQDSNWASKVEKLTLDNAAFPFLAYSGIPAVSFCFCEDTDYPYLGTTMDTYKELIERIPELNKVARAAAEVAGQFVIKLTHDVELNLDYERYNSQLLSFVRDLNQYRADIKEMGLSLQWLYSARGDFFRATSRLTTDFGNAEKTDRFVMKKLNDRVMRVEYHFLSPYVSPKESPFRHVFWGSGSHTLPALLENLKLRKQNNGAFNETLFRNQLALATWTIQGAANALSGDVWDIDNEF

Sequence | binding to PSMA dimer (PSMA dimer) | binding to PSMA monomer (PSMA monomer) | binding to TfR (TfR) | binding to casein (casein)
CALCEFLG (displayed on M13 phage) [PSMA-1] | binds to both isoforms of PSMA | binds to both isoforms of PSMA | – | –
LDCVEVFQNSCDW (displayed on M13 phage) [PSMA-2] | binds with high affinity and specificity to the PSMA dimer | – | – | –
SECVEVFQNSCDW (displayed on M13 phage) [PSMA-3] | specific binding for the PSMA dimer | not PSMA monomer | not | not
